Test results reported in patent US11346848B2, “Γ-secretase stabilizing compound screening assay” (VIB VZW, priority 2017, dated 2022).

Legend:
γ-secretase = conditions: Chávez-Gutiérrez et al., 2012; Funamoto et al., 2013; read-out: Km (substrate affinity constant); cited from earlier work
[1] = test system: CC[C@H](C)[C@H](NC(=O)[C@@H](NC(=O)[C@@H](NC(=O)[C@H](C)NC(=O)[C@@H](NC(=O)[C@@H](NC(=O)[C@@H](NC(=O)CNC(=O)CNC(=O)[C@@H](NC(=O)[C@H](CCSC)NC(=O)[C@H](CC(C)C)NC(=O)CNC(=O)[C@@H](NC(=O)[C@@H](NC(=O)[C@H](C)NC(=O)CNC(=O)[C@H](CCCCN)NC(=O)[C@H](CC(N)=O)NC(=O)[C@H](CO)NC(=O)CNC(=O)[C@@H](NC(=O)[C@H](CC(=O)O)NC(=O)[C@H](CCC(=O)O)NC(=O)[C@H](C)NC(=O)[C@H](Cc1ccccc1)NC(=O)[C@H](Cc1ccccc1)NC(=O)[C@@H](NC(=O)[C@H](CC(C)C)NC(=O)[C@H](CCCCN)NC(=O)[C@H](CCC(N)=O)NC(=O)[C@H](Cc1c[nH]cn1)NC(=O)[C@H](Cc1c[nH]cn1)NC(=O)[C@@H](NC(=O)[C@H](CCC(=O)O)NC(=O)[C@H](Cc1ccc(O)cc1)NC(=O)CNC(=O)[C@H](CO)NC(=O)[C@H](CC(=O)O)NC(=O)[C@H](Cc1c[nH]cn1)NC(=O)[C@H](CCCNC(=N)N)NC(=O)[C@H](Cc1ccccc1)NC(=O)[C@H](CCC(=O)O)NC(=O)[C@H](C)NC(=O)[C@@H](N)CC(=O)O)C(C)C)C(C)C)C(C)C)[C@@H](C)CC)[C@@H](C)CC)C(C)C)C(C)C)C(C)C)[C@@H](C)CC)[C@@H](C)O)C(C)C)C(=O)O; assay: purified protein, by the assay type
[2] = test system: CC[C@H](C)[C@H](NC(=O)[C@H](C)NC(=O)CNC(=O)[C@H](CCCCN)NC(=O)[C@H](CC(N)=O)NC(=O)[C@H](CO)NC(=O)CNC(=O)[C@@H](NC(=O)[C@H](CC(=O)O)NC(=O)[C@H](CCC(=O)O)NC(=O)[C@H](C)NC(=O)[C@H](Cc1ccccc1)NC(=O)[C@H](Cc1ccccc1)NC(=O)[C@@H](NC(=O)[C@H](CC(C)C)NC(=O)[C@H](CCCCN)NC(=O)[C@H](CCC(N)=O)NC(=O)[C@H](Cc1c[nH]cn1)NC(=O)[C@H](Cc1c[nH]cn1)NC(=O)[C@@H](NC(=O)[C@H](CCC(=O)O)NC(=O)[C@H](Cc1ccc(O)cc1)NC(=O)CNC(=O)[C@H](CO)NC(=O)[C@H](CC(=O)O)NC(=O)[C@H](Cc1c[nH]cn1)NC(=O)[C@H](CCCNC(=N)N)NC(=O)[C@H](Cc1ccccc1)NC(=O)[C@H](CCC(=O)O)NC(=O)[C@H](C)NC(=O)[C@@H](N)CC(=O)O)C(C)C)C(C)C)C(C)C)C(=O)N[C@H](C(=O)NCC(=O)N[C@@H](CC(C)C)C(=O)N[C@@H](CCSC)C(=O)N[C@H](C(=O)NCC(=O)NCC(=O)N[C@H](C(=O)N[C@H](C(=O)N[C@H](C(=O)N[C@@H](C)C(=O)N[C@H](C(=O)N[C@H](C(=O)N[C@H](C(=O)N[C@H](C(=O)O)C(C)C)[C@@H](C)CC)C(C)C)[C@@H](C)O)[C@@H](C)CC)C(C)C)C(C)C)C(C)C)[C@@H](C)CC; assay: purified protein, by the assay type

Substance	Km (γ-secretase) [µM]	Km ([1]; other: 37° C., 37.0 °C) [µM]	Vmax ([1]; other: 37° C., 37.0 °C) [nM/h]	Km ([1]; other: 45° C., […]) [µM]	Vmax ([1]; other: 45° C., […]) [nM/h]	Km ([1]; other: 51° C., […]) [µM]	Vmax ([1]; other: 51° C., […]) [nM/h]	Km ([1]; other: summary of Table 2) [µM]	Km ([2]; other: 37° C., 37.0 °C) [µM]	Vmax ([2]; other: 37° C., 37.0 °C) [nM/h]	Km ([2]; other: 51° C., […]) [µM]	Vmax ([2]; other: 51° C., […]) [nM/h]	Km ([2]; other: summary of Table 2) [µM]
APP-C99: human Amyloid beta precursor protein C99 fragment (99 aa), natural γ-secretase substrate	0.4 to 0.8	–	–	–	–	–	–	–	–	–	–	–	–
wild type human γ-secretase (PSEN1/APH1a) (Homo sapiens)	–	2.9	545.2	1.7	274.3	1.4	97.45	3	3.3	606.3	2.3	348.8	3
